For assay [1], the target named is T1, human Nerve Growth Factor (Homo sapiens, UniProt P01138).
T1 construct: human Nerve Growth Factor (beta-NGF), mature growth factor; also called hNGF; human NGF; source: obtained according to Covaceuszach et al. [77]
Kind of assay: SPR; BIACore; hNGF amine-coupled on CM5 chips (89, 93, 100 RU); Fab hum-αD11 0.39-25 nM injected in HBSEP pH 7.4 with 100 µg/ml BSA, 50 µl/min; triplicate; apparent constants. To be noted: both partners purified.

Assay [2] deals with T1, human Nerve Growth Factor. Kind of assay: SPR; BIACore; rat mAb αD11 amine-coupled on CM5 chips (1025, 1040, 1280 RU); hNGF 0.29-37.5 nM injected in PBS with 0.005% Surfactant P20, 30 µl/min; triplicate; apparent constants. The conditions noted are these: both partners purified. On the technique in general: Surface plasmon resonance follows binding to a sensor surface in real time, without labels.

T1 sequence (P01138 122-241): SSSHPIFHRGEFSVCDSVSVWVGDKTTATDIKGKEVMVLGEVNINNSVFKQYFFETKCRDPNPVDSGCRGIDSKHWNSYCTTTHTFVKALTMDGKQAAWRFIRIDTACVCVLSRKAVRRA

B1: Fab fragment of the humanized anti-NGF antibody hum-αD11 (Fab, V domains shown)
VH: EVQLVESGGGLVQPGGSLRLSCAASGFSLTNNNVNWVRQAPGKGLEWVGGVWAGGATDYNSALKSRFTISRDNSKNTAYLQMNSLRAEDTAVYYCARDGGYSSSTLYAMDAWGQGTLVTVSS
VL: DIQMTQSPSSLSASVGDRVTITCRASEDIYNALAWYQQKPGKAPKLLIYNTDTLHTGVPSRFSGSGSGTDYTLTISSLQPEDFATYFCQHYFHYPRTFGQGTKVEIK
notes: as the VH of m3 (hum-αD11 VH); constant part of the Fab heavy chain; not described for the Fab provided by PanGenetics; as the Vκ of m3 (hum-αD11 Vκ); positions L46 and L87 mutated to the rat αD11 residue, Kabat numbering; constant part of the Fab light chain; also called Fab hum-αD11; source: kindly provided by PanGenetics UK Ltd
Regarding B1, in assay [1], the Ka turned out to be 3.4e+10 M⁻¹ and the Kd was 0.0289 ± 0.0041 nM.

B2: rat anti-NGF monoclonal antibody (mAb) αD11 (antibody, V domains shown)
VH: QVQLKESGPGLVQPSQTLSLTCTVSGFSLTNNNVNWVRQATGRGLEWMGGVWAGGATDYNSALKSRLTITRDTSKSQVFLKMHSLQSEDTATYYCARDGGYSSSTLYAMDAWGQGTTVTVSA
VL: DIQMTQSPASLSASLGETVTIECRASEDIYNALAWYQQKPGKSPQLLIYNTDTLHTGVPSRFSGSGSGTQYSLKINSLQSEDVASYFCQHYFHYPRTFGGGTKLELK
notes: VH of rat αD11; rat heavy chain constant region; the CH1 part is in PDB 1ZAN (Fab); light chain of rat αD11; whole light chain in PDB 1ZAN (Fab αD11); Whole rat IgG; also called parental mAb αD11; rat αD11
For B2, in assay [2], the Ka stood at 2.21e+09 M⁻¹ and the Kd stood at 0.451 ± 0.045 nM.

Values taken from paper PMC3293900, “Single Cycle Structure-Based Humanization of an Anti-Nerve Growth Factor Therapeutic Antibody” (PLoS ONE, 2012).
